Patent US20110086338A1

How the values were obtained:
[1] = molecular target: T7-bio: coliphage T7 major capsid protein gp10A fused to the 15-amino acid biotinylation peptide, biotinylated in vivo by the host BLP (Enterobacteria phage T7); test: TEM of phage adsorbed to carrier E. coli cells, streptavidin-coated QDs in excess
[2] = molecular target: T7-bio: coliphage T7 major capsid protein gp10A fused to the 15-amino acid biotinylation peptide, biotinylated in vivo by the host BLP (Enterobacteria phage T7); test: flow cytometry of carrier E. coli cells with phage at MOI 5 and streptavidin-QDs

T7-bio: coliphage T7 major capsid protein gp10A fused to the 15-amino acid biotinylation peptide, biotinylated in vivo by the host BLP (Enterobacteria phage T7), sequence (P19727 1-349, tags or fused parts left off): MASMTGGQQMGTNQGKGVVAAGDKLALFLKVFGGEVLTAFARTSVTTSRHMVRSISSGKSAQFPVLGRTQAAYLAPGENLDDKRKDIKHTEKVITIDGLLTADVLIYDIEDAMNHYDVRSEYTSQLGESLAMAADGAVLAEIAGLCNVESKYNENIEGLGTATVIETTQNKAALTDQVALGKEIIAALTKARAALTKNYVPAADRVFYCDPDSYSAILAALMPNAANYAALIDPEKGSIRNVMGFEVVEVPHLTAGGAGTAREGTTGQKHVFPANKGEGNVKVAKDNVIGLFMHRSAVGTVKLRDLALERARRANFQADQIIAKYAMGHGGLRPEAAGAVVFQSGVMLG

“streptavidin coated QD (QD 605), Quantum Dot Corporation (from UniProt P22629 37-163)” gave a percent of T7-bio phage with no QDs bound [1] of 7%, a percent of the total peptides displayed that carry a QD [1] of 0.5% and a fluorescence against the T7-myc control (orders of magnitude) [2] of 2. The percent of phage-bound cells with fluorescence above the threshold (P2) [2] was 94%.
